In PMC3832543 one finds stoichiometry N data, which are given here for one substance.

Values joined by “and” are separate entries in the source; they are usually repeats but may differ in a detail not shown here. Equal values may be shown once.

The target of the test is MCL-1ES, wild type (amino acids 1-197), Flag-tagged (human). As to the kind of experiment: cross-linking; 293T cells; heavy membrane fraction cross-linked with glutaraldehyde, western blot; increasing MCL-1ES expression; also with MCL-1L over-expressed or knocked down. On the technique in general: A western blot detects proteins with antibodies after separation by electrophoresis.

The stoichiometry N is the number of molecules, sites or subunits per partner or assembly. For “MCL-1ES, wild type (amino acids 1-197), Flag-tagged (natural protein)”, the stoichiometry N was 2 and 3.
